The values that follow come from publication PMC10246013 (bioRxiv, 2023).

The target of data set [1] is WT dynein-GFP (human) (UniProt Q14204). Put plainly: real-time TIRF imaging of the initiation of motility.
Data set [2] deals with wild-type human dynein (wtDyn) (human) (UniProt Q14204). Description: single-molecule colocalization.
Data set [3] has as its target dynein-dynactin-BicDR1 complex assembled with wtDyn (wtDDR) (human | pig | mouse) (UniProt Q14204). Description: three-color TIRF comigration with processive complexes.
Data set [4] deals with the molecule itself. Put plainly: mass photometry.

Chain of dynein-dynactin-BicDR1 complex assembled with wtDyn (wtDDR) (human | pig | mouse) (Q14204 whole entry, looked up, one chain of several): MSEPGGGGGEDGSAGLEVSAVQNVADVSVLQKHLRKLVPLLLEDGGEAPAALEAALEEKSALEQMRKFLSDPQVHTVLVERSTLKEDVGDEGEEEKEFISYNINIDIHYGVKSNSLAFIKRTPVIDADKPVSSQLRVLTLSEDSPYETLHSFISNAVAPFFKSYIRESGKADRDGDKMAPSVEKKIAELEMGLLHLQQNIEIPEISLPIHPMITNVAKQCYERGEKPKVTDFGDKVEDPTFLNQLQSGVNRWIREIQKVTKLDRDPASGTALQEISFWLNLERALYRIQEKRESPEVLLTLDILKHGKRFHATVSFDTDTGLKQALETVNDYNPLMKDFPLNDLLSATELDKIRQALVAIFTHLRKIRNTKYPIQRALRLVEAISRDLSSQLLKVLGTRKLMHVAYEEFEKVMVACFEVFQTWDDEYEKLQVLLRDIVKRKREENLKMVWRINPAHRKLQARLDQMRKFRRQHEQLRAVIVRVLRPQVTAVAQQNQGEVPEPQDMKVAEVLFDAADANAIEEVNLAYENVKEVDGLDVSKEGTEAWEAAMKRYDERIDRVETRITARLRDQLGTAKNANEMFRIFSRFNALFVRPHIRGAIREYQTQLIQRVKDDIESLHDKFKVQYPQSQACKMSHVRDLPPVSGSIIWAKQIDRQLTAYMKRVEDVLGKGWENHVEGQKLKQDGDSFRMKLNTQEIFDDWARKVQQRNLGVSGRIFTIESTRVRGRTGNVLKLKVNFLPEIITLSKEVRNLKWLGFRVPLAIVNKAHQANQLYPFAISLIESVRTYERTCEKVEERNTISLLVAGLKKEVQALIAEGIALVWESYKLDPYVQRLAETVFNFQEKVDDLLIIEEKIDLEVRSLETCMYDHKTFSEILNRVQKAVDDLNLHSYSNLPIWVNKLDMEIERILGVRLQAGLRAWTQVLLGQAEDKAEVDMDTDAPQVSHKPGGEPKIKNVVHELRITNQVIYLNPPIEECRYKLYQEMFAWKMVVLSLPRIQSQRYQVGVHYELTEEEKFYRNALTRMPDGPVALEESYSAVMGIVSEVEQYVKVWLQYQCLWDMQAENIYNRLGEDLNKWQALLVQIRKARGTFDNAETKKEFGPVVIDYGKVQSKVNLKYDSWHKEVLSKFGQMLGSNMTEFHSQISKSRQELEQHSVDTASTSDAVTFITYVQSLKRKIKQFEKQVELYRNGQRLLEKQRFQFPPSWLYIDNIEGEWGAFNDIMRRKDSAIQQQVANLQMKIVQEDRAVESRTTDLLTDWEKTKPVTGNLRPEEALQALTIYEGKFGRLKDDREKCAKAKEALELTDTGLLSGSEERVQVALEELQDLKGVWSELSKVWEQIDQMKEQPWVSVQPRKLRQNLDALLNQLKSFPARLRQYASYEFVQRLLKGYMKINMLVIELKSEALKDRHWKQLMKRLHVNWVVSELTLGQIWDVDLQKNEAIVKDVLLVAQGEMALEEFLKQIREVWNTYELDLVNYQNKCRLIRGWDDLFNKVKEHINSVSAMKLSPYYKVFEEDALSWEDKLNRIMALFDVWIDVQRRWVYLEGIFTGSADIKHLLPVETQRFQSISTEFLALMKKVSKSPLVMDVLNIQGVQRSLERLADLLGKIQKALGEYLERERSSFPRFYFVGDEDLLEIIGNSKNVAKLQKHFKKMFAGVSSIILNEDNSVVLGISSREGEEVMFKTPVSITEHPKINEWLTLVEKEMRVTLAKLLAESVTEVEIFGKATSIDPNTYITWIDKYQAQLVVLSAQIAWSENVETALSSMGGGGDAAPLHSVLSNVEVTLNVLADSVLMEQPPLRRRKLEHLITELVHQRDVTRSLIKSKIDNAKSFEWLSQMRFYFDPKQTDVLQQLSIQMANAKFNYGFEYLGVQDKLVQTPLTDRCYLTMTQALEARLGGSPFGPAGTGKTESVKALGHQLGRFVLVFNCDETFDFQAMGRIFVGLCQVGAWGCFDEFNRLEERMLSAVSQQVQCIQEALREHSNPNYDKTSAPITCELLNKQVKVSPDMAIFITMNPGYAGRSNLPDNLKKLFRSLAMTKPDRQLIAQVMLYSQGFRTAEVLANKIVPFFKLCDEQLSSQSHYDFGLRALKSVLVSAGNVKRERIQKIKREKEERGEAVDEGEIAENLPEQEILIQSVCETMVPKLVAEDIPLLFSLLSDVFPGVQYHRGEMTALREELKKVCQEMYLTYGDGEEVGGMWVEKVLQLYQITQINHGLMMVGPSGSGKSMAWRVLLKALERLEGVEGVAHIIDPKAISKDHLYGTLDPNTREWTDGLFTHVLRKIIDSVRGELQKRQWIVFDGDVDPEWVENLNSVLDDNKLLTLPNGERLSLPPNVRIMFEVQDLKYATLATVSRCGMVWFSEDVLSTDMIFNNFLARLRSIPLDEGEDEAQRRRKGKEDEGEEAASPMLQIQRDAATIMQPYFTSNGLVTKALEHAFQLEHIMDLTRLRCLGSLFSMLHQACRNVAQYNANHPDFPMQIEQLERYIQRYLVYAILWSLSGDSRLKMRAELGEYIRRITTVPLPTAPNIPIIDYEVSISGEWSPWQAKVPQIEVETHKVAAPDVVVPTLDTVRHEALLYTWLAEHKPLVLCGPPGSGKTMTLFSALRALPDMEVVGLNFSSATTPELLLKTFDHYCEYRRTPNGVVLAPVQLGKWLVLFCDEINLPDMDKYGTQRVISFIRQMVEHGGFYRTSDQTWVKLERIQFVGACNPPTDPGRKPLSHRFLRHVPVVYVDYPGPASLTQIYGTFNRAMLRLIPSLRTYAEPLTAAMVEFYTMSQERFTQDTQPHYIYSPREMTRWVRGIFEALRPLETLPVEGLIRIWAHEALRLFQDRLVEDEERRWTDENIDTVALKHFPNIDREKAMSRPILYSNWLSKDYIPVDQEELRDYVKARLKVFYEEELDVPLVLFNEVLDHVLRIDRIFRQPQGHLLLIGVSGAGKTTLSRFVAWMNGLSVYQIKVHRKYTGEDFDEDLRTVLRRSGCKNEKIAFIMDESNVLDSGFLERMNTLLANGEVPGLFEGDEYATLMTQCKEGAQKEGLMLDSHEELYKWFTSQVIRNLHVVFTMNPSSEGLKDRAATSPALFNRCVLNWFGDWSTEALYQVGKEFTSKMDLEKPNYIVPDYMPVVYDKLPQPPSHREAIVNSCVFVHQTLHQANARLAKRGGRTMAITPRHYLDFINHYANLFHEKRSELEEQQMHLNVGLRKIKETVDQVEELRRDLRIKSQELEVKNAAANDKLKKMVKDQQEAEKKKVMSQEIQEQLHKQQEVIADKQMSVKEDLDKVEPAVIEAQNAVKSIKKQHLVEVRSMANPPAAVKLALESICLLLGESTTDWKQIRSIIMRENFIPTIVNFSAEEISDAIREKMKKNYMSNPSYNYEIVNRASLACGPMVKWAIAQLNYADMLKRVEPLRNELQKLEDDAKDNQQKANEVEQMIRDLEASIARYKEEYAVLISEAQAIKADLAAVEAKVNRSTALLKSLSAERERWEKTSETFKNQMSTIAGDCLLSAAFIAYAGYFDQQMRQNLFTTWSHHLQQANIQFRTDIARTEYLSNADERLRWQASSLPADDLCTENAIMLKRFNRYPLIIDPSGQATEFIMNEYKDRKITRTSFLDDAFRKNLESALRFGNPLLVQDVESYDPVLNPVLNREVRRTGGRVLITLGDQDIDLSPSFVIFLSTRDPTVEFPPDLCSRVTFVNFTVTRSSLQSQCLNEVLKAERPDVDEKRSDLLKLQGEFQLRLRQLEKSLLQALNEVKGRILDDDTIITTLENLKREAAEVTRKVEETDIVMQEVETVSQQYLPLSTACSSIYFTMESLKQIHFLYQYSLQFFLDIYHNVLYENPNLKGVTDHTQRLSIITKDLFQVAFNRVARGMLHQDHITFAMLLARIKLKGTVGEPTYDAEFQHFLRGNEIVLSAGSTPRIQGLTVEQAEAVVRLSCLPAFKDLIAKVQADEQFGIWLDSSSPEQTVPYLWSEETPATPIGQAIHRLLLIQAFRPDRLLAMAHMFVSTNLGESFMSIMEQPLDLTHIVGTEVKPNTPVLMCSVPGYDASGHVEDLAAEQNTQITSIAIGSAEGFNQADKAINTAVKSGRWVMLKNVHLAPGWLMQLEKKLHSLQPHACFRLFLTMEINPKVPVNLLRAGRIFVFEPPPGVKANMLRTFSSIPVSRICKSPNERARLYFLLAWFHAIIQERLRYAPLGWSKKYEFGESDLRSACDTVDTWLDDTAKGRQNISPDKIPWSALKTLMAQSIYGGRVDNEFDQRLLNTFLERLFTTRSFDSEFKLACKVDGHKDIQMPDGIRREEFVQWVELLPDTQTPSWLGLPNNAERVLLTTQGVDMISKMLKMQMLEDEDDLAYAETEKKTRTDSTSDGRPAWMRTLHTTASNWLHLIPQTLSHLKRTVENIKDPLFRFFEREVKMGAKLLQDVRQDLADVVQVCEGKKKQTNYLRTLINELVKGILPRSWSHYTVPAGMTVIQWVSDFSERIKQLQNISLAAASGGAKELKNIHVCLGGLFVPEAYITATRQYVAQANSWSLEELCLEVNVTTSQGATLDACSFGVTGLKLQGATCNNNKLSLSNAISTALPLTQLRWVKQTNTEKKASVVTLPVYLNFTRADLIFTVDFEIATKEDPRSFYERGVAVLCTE

For “pig brain dynactin (from UniProt A0A287B8J2 1-1281) (complex)”, the percent of dynein-colocalized Nde1 immediately released, with Lis1 in data set [1] turned out to be 50%. Further, the percent reduction of Nde1 colocalization to dynein in data set [2] was 37%.
On to “human Lis1 (full-length) (from UniProt P43034 1-410) (natural protein)”, for which, in data set [3], the percent of DDR complexes co-migrating with Lis1 was 70%.

B1: Nde1^1–190 (N-terminus of human Nde1) (domain or fragment)
chain: MEDSGKTFSSEEEEANYWKDLAMTYKQRAENTQEELREFQEGSREYEAELETQLQQIETRNRDLLSENNRLRMELETIKEKFEVQHSEGYRQISALEDDLAQTKAIKDQLQKYIRELEQANDDLERAKRATIMSLEDFEQRLNQAIERNAFLESELDEKENLLESVQRLKDEARDLRQELAVQQKQEKPR
modifications: LD555 dye in the size exclusion experiment
One may read the stoichiometry N as the number of molecules, sites or subunits per partner or assembly. Consider B1, for which the “stoichiometry N” value in data set [4] turned out to be 2.

B2: human Nde1 (full-length) (natural protein)
chain: MEDSGKTFSSEEEEANYWKDLAMTYKQRAENTQEELREFQEGSREYEAELETQLQQIETRNRDLLSENNRLRMELETIKEKFEVQHSEGYRQISALEDDLAQTKAIKDQLQKYIRELEQANDDLERAKRATIMSLEDFEQRLNQAIERNAFLESELDEKENLLESVQRLKDEARDLRQELAVQQKQEKPRTPMPSSVEAERTDTAVQATGSVPSTPIAHRGPSSSLNTPGSFRRGLDDSTGGTPLTPAARISALNIVGDLLRKVGALESKLASCRNLVYDQSPNRTGGPASGRSSKNRDGGERRPSSTSVPLGDKGLDTSCRWLSKSTTRSSSSC
modifications: LD655 or LD555 dye in the fluorescence assays
On to B2, for which the “stoichiometry N” value in data set [4] was found to be 2.
